Paper PMC8300624, “Prdx1 Interacts with ASK1 upon Exposure to H2O2 and Independently of a Scaffolding Protein” (Antioxidants, 2021)

Legend:
[1] = target: T1, recombinant wild-type peroxiredoxin-1 (Prdx1 WT) (human, UniProt Q06830 1-199); test: BLI; Octet Red 96; His-tagged MBP-ASK1-TBD loaded on Ni2+-NTA sensors at 0.45 µM; Prdx as analyte at 1 µM or at different concentrations for kon and koff; 10 µM H2O2 (oxidizing condition); 25 mM Tris/HCl pH 7.4, 25 mM NaCl, 1% BSA, 0.05% Tween 20, 0.01 mM maltose; His-tagged MBP as reference; the paper takes the bond to be a mixed disulfide; details: both partners purified
T1 construct: peroxiredoxin-1 (Prdx1); In the BLI the protein was pre-reduced with DTT, desalted and then met the sensor in 10 µM H2O2 or 10 µM DTT; also called pET17-Prdx1; source: E. coli BL21, purified (Phenyl Sepharose, SP Sepharose, Superdex 75)
T1 sequence (looked up): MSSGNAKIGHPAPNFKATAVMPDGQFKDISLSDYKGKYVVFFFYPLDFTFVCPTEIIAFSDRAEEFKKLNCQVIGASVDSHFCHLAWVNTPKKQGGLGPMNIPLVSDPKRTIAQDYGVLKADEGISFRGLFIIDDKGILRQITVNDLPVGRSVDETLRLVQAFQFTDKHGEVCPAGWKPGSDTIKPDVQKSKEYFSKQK

[2] = target: T2, recombinant Prdx1 C173A (resolving cysteine mutant) (human, UniProt Q06830 1-199, C173A); test: as above; details: both partners purified
T2 construct: peroxiredoxin-1 (Prdx1) with C173A; purified by the same protocol as Prdx1 WT; source: E. coli BL21, purified (Phenyl Sepharose, SP Sepharose, Superdex 75)
T2 sequence (looked up): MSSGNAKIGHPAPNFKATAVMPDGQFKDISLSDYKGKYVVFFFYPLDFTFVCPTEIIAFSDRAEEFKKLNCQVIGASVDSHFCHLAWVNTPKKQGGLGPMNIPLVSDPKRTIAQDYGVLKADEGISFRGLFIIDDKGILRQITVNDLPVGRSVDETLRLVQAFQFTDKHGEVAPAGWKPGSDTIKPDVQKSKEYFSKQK

B1: 6xHis-MBP-ASK1-TBD (thioredoxin-binding domain of ASK1 with N-terminal His tag and maltose binding protein) (domain or fragment)
chain: SRRTTVAYVINEASQGQLVVAESEALQSLREACETVGATLETLHFGKLDFGETTVLDRFYNADIAVVEMSDAFRQPSLFYHLGVRESFSMANNIILYCDTNSDSLQSLKEIICQKNTMCTGNYTFVPYMITPHNKVYCCDSSFMKGLTELMQPNFELLLGPICLPLVDRFIQLLKVAQASSSQYFRESILNDIRKARNLYTGKELAAELARIRQR
modifications: Limits are not given; 88-302 is the usual recombinant ASK1-TBD construct and spans the listed TBD cysteines 120-250. His6-MBP-TEV carrier omitted. Assayed with 10 uM H2O2 (oxidizing) or 10 uM DTT …
- koff [1]: 0.0002 s⁻¹
- kon [1]: 32700 M⁻¹ s⁻¹
- koff [2]: 0.00228 s⁻¹
- kon [2]: 7200 M⁻¹ s⁻¹
